# Measured values: publication PMC6651687
# pKd: −log10 of the molar value.
# Target: T1, TTHA0973 (PaaR, TetR family) (Thermus thermophilus HB8) (UniProt Q5SJN5)
# T1 sequence: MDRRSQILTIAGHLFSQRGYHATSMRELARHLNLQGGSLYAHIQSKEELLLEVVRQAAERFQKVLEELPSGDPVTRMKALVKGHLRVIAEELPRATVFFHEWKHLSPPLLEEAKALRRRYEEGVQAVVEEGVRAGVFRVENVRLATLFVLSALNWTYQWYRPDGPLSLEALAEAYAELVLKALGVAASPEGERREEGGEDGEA
# Assay: BLI
# Conditions: BLI with 11, 33, 100, 300 nM TTHA0973; EMSA 0-100 nM; buffer, salt, pH, temperature not given (cited protocol)
sequence,measurement,value
CTAGGAATTCGTGCAGAGGTGAATACCTAGCGTTACTTTTACCATCCCTCCAGAAGCTTGGACA (double strand) [ST2_0973_0647bp],pKd,7.00
